Values quoted from earlier work in patent US20070178499.
pKd: −log10 of the molar value.

How the values were obtained:
[1] = tested on: Aart(S) 6-finger (artificial); settings: CITED?; affinity stated without method
[2] = tested on: E2C(S) 6-finger (artificial); settings: CITED (Beerli 2000)

For Aart 18-bp target site, the pKd [1] is listed as 11.12.

For E3 site of erbB-3, the binding signal (fold loss in affinity vs n8) [2] is listed as 15.
